The text below walks through data of the RNAGym collection of RNA variant scans (doi:10.7554/elife.80360).

B1: CPEB3 Ribozyme (parent)
chain: GGGGGCCACAGCAGAAGCGUUCACGUCGCGGCCCCUGUCAGAUUCUGGUGAAUCUGCGAAUUCUGCUGU

Variants of B1 are the subject of this data set. The data set can be described thus: self-cleavage, relative activity (ratio to wild type); higher = more cleavage; co-transcriptional.
As to GGGGGCCACAGCAGAAGCGUUCACGUCGCGGCCCCUGUCAGAUUCUGGGGAAACUGCGAAUUCUGCUGU [U49G U53A], the self-cleavage worked out at 0.918.
Under GGGGGCCACAGCAGAAGCGUUCACGUCGCGGCCCCUGUCAGAUUCUGGGGAACCUGCGAAUUCUGCUGU [U49G U53C] stands 0.98; under GGGGGCCACAGCAGAAGCGUUCACGUCGCGGCCCCUGUCAGAUUCUGGUAAAUCUCCGAAUUCUGCUGU [G50A G56C], 0.675.
The result for GGGGGCCACAGCAGAAGCGUUCACGUCGCGGCCCCUGUCAGAUUCUGGUAAAUCUUCGAAUUCUGCUGU [G50A G56U] reads 0.905; that for GGGGGCCACAGCAGAAGCGUUCACGUCGCGGCCCCUGUCAGAUUCUGGUCAAUCUGCGAAUUCAGCUGU [G50C U64A], 0.792; that for GGGGGCCACAGCAGAAGCGUUCACGUCGCGGCCCCUGUCAGAUUCUGGUCAAUCUGCGAAUUCUGCUAU [G50C G68A], 0.992.
The result for GGGGGCCACAGCAGAAGCGUUCACGUCGCGGCCCCUGUCAGAUUCUGGUUAAUCUGCGAGUUCUGCUGU [G50U A60G] reads 0.973.
As to GGGGGCCACAGCAGAAGCGUUCACGUCGCGGCCCCUGUCAGAUUCUGGUUAAUCUGCGACUUCUGCUGU [G50U A60C], the self-cleavage is 0.382.
Under GGGGGCCACAGCAGAAGCGUUCACGUCGCGGCCCCUGUCAGAUUCUGGUAAAUCUGCCAAUUCUGCUGU [G50A G58C] stands 1; under GGGGGCCACAGCAGAAGCGUUCACGUCGCGGCCCCUGUCAGAUUCUGGGGAAUCUGCGAAUUCUGCUCU [U49G G68C], 0.958; under GGGGGCCACAGCAGAAGCGUUCACGUCGCGGCCCCUGUCAGAUUCUGGGGAAUCUGCGAAUUCUGCUAU [U49G G68A], 1.
The result for GGGGGCCACAGCAGAAGCGUUCACGUCGCGGCCCCUGUCAGAUUCUGGGUAAUCUGCGAAUUCUGCUGU [U49G G50U] reads 0.993.
On to GGGGGCCACAGCAGAAGCGUUCACGUCGCGGCCCCUGUCAGAUUCUGGGCAAUCUGCGAAUUCUGCUGU [U49G G50C], for which the self-cleavage stood at 0.975.
Under GGGGGCCACAGCAGAAGCGUUCACGUCGCGGCCCCUGUCAGAUUCUGGUAAGUCUGCGAAUUCUGCUGU [G50A A52G] stands 1.
The result for GGGGGCCACAGCAGAAGCGUUCACGUCGCGGCCCCUGUCAGAUUCUGGUUAGUCUGCGAAUUCUGCUGU [G50U A52G] reads 0.976; that for GGGGGCCACAGCAGAAGCGUUCACGUCGCGGCCCCUGUCAGAUUCUGGGGGAUCUGCGAAUUCUGCUGU [U49G A51G], 0.981; that for GGGGGCCACAGCAGAAGCGUUCACGUCGCGGCCCCUGUCAGAUUCUGGGGUAUCUGCGAAUUCUGCUGU [U49G A51U], 0.95.
Under GGGGGCCACAGCAGAAGCGUUCACGUCGCGGCCCCUGUCAGAUUCUGGUAAAUCUGCGAAUUCUGCUGA [G50A U69A] stands 0.982; under GGGGGCCACAGCAGAAGCGUUCACGUCGCGGCCCCUGUCAGAUUCUGGUACAUCUGCGAAUUCUGCUGU [G50A A51C], 1.02; under GGGGGCCACAGCAGAAGCGUUCACGUCGCGGCCCCUGUCAGAUUCUGGUAAAUGUGCGAAUUCUGCUGU [G50A C54G], 0.848.
Consider GGGGGCCACAGCAGAAGCGUUCACGUCGCGGCCCCUGUCAGAUUCUGGUAAAUUUGCGAAUUCUGCUGU [G50A C54U], for which the self-cleavage was determined as 0.992.
The result for GGGGGCCACAGCAGAAGCGUUCACGUCGCGGCCCCUGUCAGAUUCUGGUUCAUCUGCGAAUUCUGCUGU [G50U A51C] reads 0.938.
The result for GGGGGCCACAGCAGAAGCGUUCACGUCGCGGCCCCUGUCAGAUUCUGGUCAAUCUCCGAAUUCUGCUGU [G50C G56C] reads 0.456; that for GGGGGCCACAGCAGAAGCGUUCACGUCGCGGCCCCUGUCAGAUUCUGGUAAAACUGCGAAUUCUGCUGU [G50A U53A], 0.903.
The result for GGGGGCCACAGCAGAAGCGUUCACGUCGCGGCCCCUGUCAGAUUCUGGGGAAUCUGCGUAUUCUGCUGU [U49G A59U] reads 0.835; that for GGGGGCCACAGCAGAAGCGUUCACGUCGCGGCCCCUGUCAGAUUCUGGGGAAUCUGCGGAUUCUGCUGU [U49G A59G], 0.96.
On to GGGGGCCACAGCAGAAGCGUUCACGUCGCGGCCCCUGUCAGAUUCUGGUAAAUCUGCGAAUUCUGCCGU [G50A U67C], for which the self-cleavage came out at 1.01.
GGGGGCCACAGCAGAAGCGUUCACGUCGCGGCCCCUGUCAGAUUCUGGUAAAUCUGCGAAUUCUGCGGU [G50A U67G]: the self-cleavage turned out to be 1.02.
GGGGGCCACAGCAGAAGCGUUCACGUCGCGGCCCCUGUCAGAUUCUGGUAAAUCUGCGAAUUCUCCUGU [G50A G65C]: the self-cleavage amounted to 0.683.
GGGGGCCACAGCAGAAGCGUUCACGUCGCGGCCCCUGUCAGAUUCUGGGGAAUCAGCGAAUUCUGCUGU [U49G U55A]: the self-cleavage came to 0.968.
The result for GGGGGCCACAGCAGAAGCGUUCACGUCGCGGCCCCUGUCAGAUUCUGGUCCAUCUGCGAAUUCUGCUGU [G50C A51C] reads 0.876; that for GGGGGCCACAGCAGAAGCGUUCACGUCGCGGCCCCUGUCAGAUUCUGGUCGAUCUGCGAAUUCUGCUGU [G50C A51G], 0.982; that for GGGGGCCACAGCAGAAGCGUUCACGUCGCGGCCCCUGUCAGAUUCUGGCGAAUCUGCGAAUUCGGCUGU [U49C U64G], 0.909.
The result for GGGGGCCACAGCAGAAGCGUUCACGUCGCGGCCCCUGUCAGAUUCUGGCGAAUCUGCGAAUUCAGCUGU [U49C U64A] reads 0.89; that for GGGGGCCACAGCAGAAGCGUUCACGUCGCGGCCCCUGUCAGAUUCUGGCGAAUCUGCGAAUACUGCUGU [U49C U62A], 0.98; that for GGGGGCCACAGCAGAAGCGUUCACGUCGCGGCCCCUGUCAGAUUCUGGUAAAUCUGCGAAUUCUGCUGU [G50A], 0.999.
Under GGGGGCCACAGCAGAAGCGUUCACGUCGCGGCCCCUGUCAGAUUCUGGUCAAUCUGCGAAUUCUGCUGU [G50C] stands 0.996; under GGGGGCCACAGCAGAAGCGUUCACGUCGCGGCCCCUGUCAGAUUCUGGUUAAUCUGCGAAUUCUGCUGU [G50U], 0.997.
As to GGGGGCCACAGCAGAAGCGUUCACGUCGCGGCCCCUGUCAGAUUCUGGUCAUUCUGCGAAUUCUGCUGU [G50C A52U], the self-cleavage stood at 0.884.
